# “Also recorded” adds a separate entry of the source.
# Key:
# SD rats [1] = assay: Rat arterio-venous shunt thrombus formation model; type: in vivo
# Method: 50 SPF grade male SD rats (provided by the laboratory animal center of Guangdong Medical College, 300-350 g body weight) were randomly divided into saline control group, positive control group (100 U·kg^−1 heparin sodium, Shanghai No. 1 Biochemical & Pharmaceutical Co. Ltd), and rNAPT-1 low dose (100 μg·kg^−1), middle dose (1 mg·kg^−1), high dose group (5 mg·kg^−1), 10 rats each group, respectively. These rats were anaesthetized with 10% chloral hydrate (250 mg/kg) by intraperitoneal injection. The right common carotid artery and left external jugular vein was exposed and dissected bluntly from the surrounding tissue after a surgical incision. One end of a polyethylene pipe (1.5 mm of diameter, 22 cm of length) with a 5 cm length of No. 4 operation suture in it and filled with 50 U/mL heparin solution was inserted into the right common carotid artery, and the other end was inserted into the left external […] vein. 5 min after tail intravenous injection of drugs, the artery clamp was opened, and blood flow from the right common carotid artery to the left external jugular vein through the polyethylene pipe. After 15 min of blood flow, the suture line was quickly removed and weighed. The net weight of thrombus is total weight minus suture weight; inhibition rate=(wet weight of thrombus of saline control group−wet weight of thrombus of administration group)/wet weight of thrombus of saline control group×100%.
# SD rats [2] = assay: Rat clotting time after i.v. injection, PT; type: in vivo; conditions: for Clotting time PT: rat plasma 2 min after injection
# Method: 40 SPF grade male SD rats (provided by the laboratory animal center of Guangdong Medical College, 300-350 g body weight) were randomly divided into a line group, and rNAPTin-1 low-dose (100 μg·kg^−1), middle-dose (1 mg·kg^−1), high dose group (5 mg·kg^−1), 10 rats each group. 2 min after intravenous injection of various rNAPTin-1, blood was harvested from animal heart, and injected into an anticoagulant tube (3.8% sodium citrate). Animal plasma was separated by centrifugation (1500×g, 10 mins) and was used to measure aPTT and PT.
# normal human plasma = assay: aPTT assay in normal human plasma; type: biochemical; conditions: for aPTT: normal human plasma; for multiples of prolonging aPTT: ratio of mean aPTT to blank control
# Method: The recombinant anticoagulant polypeptides were expressed in Escherichia coli and purified in our laboratory. Anticoagulant activity was determined by measuring the aPTT and PT.
# For the aPTT assay, 10 μl recombinant protein at various concentrations was mixed with 50 μl fresh normal human plasma, 20 μl aPTT reagent (MDC Hemostasis, Germany) and incubated for 15 mins at 37° C. 20 μl 0.05 mol/L prewarmed CaCl2 was then added to initiate the clotting reaction. The clotting time was measured with the absorbance at 630 nm by using an E1x808 kinetic microtiter reader (BioTek, United States). Each concentration was repeated 3 times. The ratio of the mean aPTT value of each concentration to blank control group is multiples of prolonging the aPTT.
# fVIIa/TF = molecular target: T1, fVIIa/TF (Homo sapiens, UniProt P08709); assay: Chromogenic assay, fVIIa/TF; type: biochemical
# T1 construct: Recombinant fVIIa was products of Novo-Nordisk (Denmark); purchased Novo-Nordisk (Denmark) for fVIIa; Protgen (Beijing, China) for sTF; Haematologic Technologies Inc for EGR-fXa
# T1 sequence (P08709 61-212 limits assumed): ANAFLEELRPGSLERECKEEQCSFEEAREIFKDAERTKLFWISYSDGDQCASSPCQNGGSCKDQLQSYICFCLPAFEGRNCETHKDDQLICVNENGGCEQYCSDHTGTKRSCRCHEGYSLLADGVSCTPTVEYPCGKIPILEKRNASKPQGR
# T1 sequence (P08709 213-466 limits assumed): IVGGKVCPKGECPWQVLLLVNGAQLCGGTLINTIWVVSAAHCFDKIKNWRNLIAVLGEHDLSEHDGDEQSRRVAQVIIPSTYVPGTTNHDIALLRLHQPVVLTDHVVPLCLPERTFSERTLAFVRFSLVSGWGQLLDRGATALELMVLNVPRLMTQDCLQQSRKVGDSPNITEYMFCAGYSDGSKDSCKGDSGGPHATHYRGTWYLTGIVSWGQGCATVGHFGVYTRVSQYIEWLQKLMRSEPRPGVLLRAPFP
# T1 sequence (P13726 33-251 partner limits assumed): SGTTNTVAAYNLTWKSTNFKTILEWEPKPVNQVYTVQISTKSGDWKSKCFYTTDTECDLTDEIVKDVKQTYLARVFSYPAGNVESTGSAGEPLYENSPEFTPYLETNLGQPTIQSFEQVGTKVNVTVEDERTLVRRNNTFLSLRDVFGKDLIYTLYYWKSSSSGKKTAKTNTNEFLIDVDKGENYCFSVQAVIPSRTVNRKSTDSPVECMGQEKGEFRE
# Excerpt: (§1) The recombinant anticoagulant polypeptides in the present invention were expressed in E. coli and purified in our laboratory, of which the activities against coagulation factors were investigated by chromogenic assays. Human coagulation factors IIa (thrombin), Xa, XIa, XIIa, EGR-fXa were products of Haematologic Technologies Inc (United States). Recombinant fVIIa was products of Novo-Nordisk (Denmark). Recombinant soluble tissue factor (sTF) was purchased from Protgen (Beijing, China). The following chromogenic substrates were used for these coagulation factor assays: S2765 for human fXa, S2288 for human fVIIa and fIIa, 52366 for human fXIa and fXIIa, respectively.
# (§2) The chromogenic assays were carried out in a total reaction volume of 100 μl in individual wells of a 96-well microtiter plate. 50 μl fIIa, fXa, fXIa, or fXIIa (final concentration: 1 nM) was incubated with 10 μl recombinant anticoagulant polypeptide at various concentrations (or PBS control group) Assays for the detection activity of fVIIa: 50 μl fVIIa+TF (1 μM) and EGR-fXa (final concentration 500 nM) was incubated for 15 mins at 25° C., respectively. After the addition of 40 μl of prewarmed chromogenic substrate to a final concentration of 400 μM, the changes of absorbance at 405 nm were monitored by using an E1x808 kinetic microtiter reader. The data were used to calculate the velocities of response.
# human fXIa = molecular target: T2, human fXIa (Homo sapiens, UniProt P03951); assay: Chromogenic assay, fXIa; type: biochemical
# T2 construct: Human coagulation factors IIa (thrombin), Xa, XIa, XIIa, EGR-fXa; purchased Haematologic Technologies Inc (United States)
# T2 sequence (P03951 19-387 limits assumed): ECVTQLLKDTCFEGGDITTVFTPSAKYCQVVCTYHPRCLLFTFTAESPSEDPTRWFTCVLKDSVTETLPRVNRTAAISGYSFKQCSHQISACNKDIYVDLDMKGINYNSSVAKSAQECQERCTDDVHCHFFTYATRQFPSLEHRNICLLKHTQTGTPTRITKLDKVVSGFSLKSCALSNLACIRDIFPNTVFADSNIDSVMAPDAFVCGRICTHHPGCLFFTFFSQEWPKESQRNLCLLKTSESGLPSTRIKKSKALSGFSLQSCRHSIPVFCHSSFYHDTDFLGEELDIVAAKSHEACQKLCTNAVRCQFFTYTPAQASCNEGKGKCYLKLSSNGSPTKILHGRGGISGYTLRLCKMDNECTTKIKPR
# T2 sequence (P03951 388-625 limits assumed): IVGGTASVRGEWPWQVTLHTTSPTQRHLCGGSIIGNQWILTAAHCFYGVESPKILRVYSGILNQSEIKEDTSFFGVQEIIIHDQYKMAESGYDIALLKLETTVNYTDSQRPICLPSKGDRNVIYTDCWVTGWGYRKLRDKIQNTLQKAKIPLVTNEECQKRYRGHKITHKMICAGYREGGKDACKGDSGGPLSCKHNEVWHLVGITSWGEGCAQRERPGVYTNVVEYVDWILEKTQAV
# Excerpt: as §1, §2
# BALb/c mice = assay: Mouse tail bleeding time; type: in vivo; conditions: tail transected after 10 min
# Method: After 10 min, the distal tip 1.5 mm of the mouse tail was transected and the blood oozed was soaked with filter paper very 30 seconds until the bleeding stops. The bleeding time was defined as the time elapsed from the tail transection to the stoppage of bleeding.
# human fIIa (thrombin) = molecular target: T3, human fIIa (thrombin) (Homo sapiens, UniProt P00734); assay: Chromogenic assay, fIIa (thrombin); type: biochemical
# T3 construct: Human coagulation factors IIa (thrombin), Xa, XIa, XIIa, EGR-fXa; purchased Haematologic Technologies Inc (United States)
# Excerpt: as §1, §2
# human fXa = molecular target: T4, human fXa (Homo sapiens, UniProt P00742); assay: Chromogenic assay, fXa; type: biochemical
# T4 construct: Human coagulation factors IIa (thrombin), Xa, XIa, XIIa, EGR-fXa; purchased Haematologic Technologies Inc (United States)
# T4 sequence (P00742 41-179 limits assumed): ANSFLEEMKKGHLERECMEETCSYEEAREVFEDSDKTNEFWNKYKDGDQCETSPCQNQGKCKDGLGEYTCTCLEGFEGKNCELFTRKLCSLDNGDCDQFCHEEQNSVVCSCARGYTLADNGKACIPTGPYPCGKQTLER
# T4 sequence (P00742 235-488 limits assumed): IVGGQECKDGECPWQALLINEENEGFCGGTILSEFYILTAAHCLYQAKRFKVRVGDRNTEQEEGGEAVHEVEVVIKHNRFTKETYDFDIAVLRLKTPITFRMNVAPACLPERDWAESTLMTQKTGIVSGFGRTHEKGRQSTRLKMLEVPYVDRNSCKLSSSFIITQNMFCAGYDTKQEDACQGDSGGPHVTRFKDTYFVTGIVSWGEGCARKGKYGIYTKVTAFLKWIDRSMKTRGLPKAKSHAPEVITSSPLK
# Excerpt: as §1, §2
molecule,measurement,setting,value
"NAPTin-1 (protein, Sequence derived from Ancylostoma caninum or Synthetic) NPSCGENERHDECSRKECDPKCKYDGTEEKDDEKPVVCLTRVCYGDCICRDGFLRNKNGACVKAEDCELD",wet weight of thrombus,SD rats [1]; 100 μg·kg^−1 i.v.,8.5 ± 1.8 mg
same,Inhibition rate %,"SD rats [1]; 100 μg·kg^−1 i.v., vs saline control",80.5%
same,wet weight of thrombus,SD rats [1]; 1 mg·kg^−1 i.v.,1.5 ± 0.3 mg
same,Inhibition rate %,"SD rats [1]; 1 mg·kg^−1 i.v., vs saline control",97%
same,wet weight of thrombus,SD rats [1]; 5 mg·kg^−1 i.v.,0.3 ± 0.2 mg
same,Inhibition rate %,"SD rats [1]; 5 mg·kg^−1 i.v., vs saline control",99%
same,effect on arterio-venous shunt thrombosis (in words),"SD rats [1]; vs saline control, P<0.01",could inhibit rat arterio-venous shunt thrombosis
same,Clotting time PT,SD rats [2]; 0.1 mg/kg i.v.,11.8 ± 0.5
same,Clotting time PT,SD rats [2]; 1.0 mg/kg i.v.,12.0 ± 0.3
same,Clotting time PT,SD rats [2]; 5.0 mg/kg i.v.,11.5 ± 0.8
same,effect on rat PT (in words),SD rats [2]; 0.1-5 mg/kg i.v.,not prolonged PT
same,prolongation of aPTT (in words),normal human plasma; 100 nM and 500 nM,significantly prolong aPTT
same,aPTT,normal human plasma; 100 nM,79.2 ± 3.5 s
same,multiples of prolonging aPTT,normal human plasma; 100 nM,1.98
same,aPTT,normal human plasma; 500 nM,228.3 ± 7.4 s
same,multiples of prolonging aPTT,normal human plasma; 500 nM,5.69
same,effect on fVIIa/TF activity (in words),fVIIa/TF; 100 nM,without affecting; also recorded: no significant inhibitory activity
same,effect on fVIIa/TF activity (in words),fVIIa/TF; 200 nM,without affecting
same,inhibition of the activity of fXIa,human fXIa; 100 nM,more than 90%
same,inhibition of the activity of fXIa (in words),human fXIa; 200 nM,almost completely inhibited
same,Bleeding time,BALb/c mice; 100 μg·kg^−1 tail vein,8.34 ± 1.7 min
same,Bleeding time,BALb/c mice; 1 mg·kg^−1 tail vein,8.30 ± 2.1 min
same,Bleeding time,BALb/c mice; 5 mg·kg^−1 tail vein,8.28 ± 2.3 min
same,effect on fIIa activity (in words),human fIIa (thrombin); 100 nM,without affecting
same,effect on fIIa activity (in words),human fIIa (thrombin); 200 nM,without affecting
same,effect on fXa activity (in words),human fXa; 100 nM,without affecting; also recorded: no significant inhibitory activity
same,effect on fXa activity (in words),human fXa; 200 nM,without affecting
